Assay results: US20240226230A1

Biological target: phenylalanine and glycine rich nucleoporins (FG-Nups)
Assay: cell-based or functional assay

cells in which the accumulation of TDP-43 and Nup62 in cytoplasmic GR aggregates is abolished: 60 % of cells
Substance: FLAG-KPNB1 H1-8^WT (from UniProt Q14974 1-361)
